# Laboratory results as given in US20220259593A1, “CONTROL OF MAMMALIAN GENE DOSAGE USING CRISPR” (The Regents of the University of California, priority 2019, published 2022).
# Tested on: K562 CRISPRi cells
# Assay: Constant region variant library pooled growth screen, K562
# Format: cell-based, human
# Settings: sgRNA constant region variants, un-modified constant region cr995
# Procedure, shortened: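 Growth screens in K562 CRISPRi cells were harvested 4-8 days post-selection at >2000× library coverage. Each variant's phenotype was referenced to the unmodified constant region with the same targeting sequence.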
# [1] = relative to the original, CRISPRi
molecule,measurement,setting,value
"cr959 (nucleic acid, listed as DNA, chemistry not fully specified) guide: GTTTAAGAGCTAAGCTGGAAACAGCATAGCAAGTTTAAATAAGGCTAGTCCGTTATCAATTCGAAATACTGGCACCGAGTCGGTGCT",Mean relative activity,activity relative to the original,0.5251
"cr675 (nucleic acid, listed as DNA, chemistry not fully specified) guide: GTTTAAGAGCTAAGCTGGAAACAGCATAGCAAGCTTAAATAAGGCTAGTCCGTTATCACCTTGAAAAAGGGGCACCGAGTCGGTGCT",Mean relative activity,[1],0.5084
"cr005 (nucleic acid, listed as DNA, chemistry not fully specified) guide: GCTTAAGAGCTAAGCTGGAAACAGCATAGCAAGTTTAAATAAGGCTAGTCCGTTATCAACTTGAAAAAGTGGCACCGAGTCGGTGCT",Mean relative activity,[1],0.5108
"cr548 (nucleic acid, listed as DNA, chemistry not fully specified) guide: GTTTAAGAGCTAAGCTGGAAACAGCATAGCAAGTTTAAATAAGGCTAGTCCGTTATCAACTTGAAAAAGTGGCAACGAGTCGGTGCT",Mean relative activity,[1],0.513
"cr265 (nucleic acid, listed as DNA, chemistry not fully specified) guide: GTTTAAGAGCTAAGCTGGAAACAGCATAGCAAGTTTAAATAAGGTTAGTCCGTTATCAACTTGAAAAAGTGGCACCGAGTCGGTGCT",Mean relative activity,[1],0.5157
"cr150 (nucleic acid, listed as DNA, chemistry not fully specified) guide: GTTTAAGAGCTAAGCTGGAAACAGCATAGCAAGTTTAAATAAGGCTAGTCCGTTATCAACTTGAAAAAGTGGCAGCGAGTCGGTGCT",Mean relative activity,[1],0.523
"cr511 (nucleic acid, listed as DNA, chemistry not fully specified) guide: GTTTAAGAGCTAAGCTGGAAACAGCATTGCCAGTTTAAATAAGGCTAGTCCGTTATCAACTTGAAAAAGTGGCACCGCGTCGGTGCT",Mean relative activity,[1],0.5247
"cr724 (nucleic acid, listed as DNA, chemistry not fully specified) guide: GTTTAAGAGCTAAGCTGGAAACAGCATAGCAAGTTTAAATAAGGCTAGTCCGTTATCGACTTGAAAAAGTGGCACCGAGTCGGTGCT",Mean relative activity,[1],0.5177
"cr072 (nucleic acid, listed as DNA, chemistry not fully specified) guide: GTCTAAGTGCTAAGCTGGAAACAGCATAGCAAGTTTAAATAAGGCTAGTCCGTTATCAACTTGAAAAAGTGGCACCGAGTCGGTGCT",Mean relative activity,[1],0.5236
"cr599 (nucleic acid, listed as DNA, chemistry not fully specified) guide: GTTTAAGAGCTAAGCTGGAAACAGCATAGCAAGTTTAAATAAGGCTAGCCCGTTATCAACGTGAAAAAGTGGCACCGAGTCGGTGCT",Mean relative activity,[1],0.5112
"cr166 (nucleic acid, listed as DNA, chemistry not fully specified) guide: GTTTAAGAGCTAAGCTGGAAACAGCATAGCAAGCTTAAATAAGGCTAGTCCGTTATCAACTTGAAAAAGTGGTACCGAGTCGGTACT",Mean relative activity,[1],0.5245
"cr255 (nucleic acid, listed as DNA, chemistry not fully specified) guide: GTTTAAGAGCTAAGCTGGAAACAGCATAGCAAGCTTAAATAAGGCTAGTCCGTTATCAACTTGAAAAAGTGGGACCGAGTCGGTCCT",Mean relative activity,[1],0.5097
